The text below walks through data of patent US20230183337A1 (UNIVERSIT D AIXMARSEILLE, published 2023).

For assay [1], the target named is T1, human Nectin-4 (cell surface nectin-4 on SUM190 tumor cells; nectin-4 in breast cancer tissues) (UniProt Q96NY8 32-510).
T1 chain: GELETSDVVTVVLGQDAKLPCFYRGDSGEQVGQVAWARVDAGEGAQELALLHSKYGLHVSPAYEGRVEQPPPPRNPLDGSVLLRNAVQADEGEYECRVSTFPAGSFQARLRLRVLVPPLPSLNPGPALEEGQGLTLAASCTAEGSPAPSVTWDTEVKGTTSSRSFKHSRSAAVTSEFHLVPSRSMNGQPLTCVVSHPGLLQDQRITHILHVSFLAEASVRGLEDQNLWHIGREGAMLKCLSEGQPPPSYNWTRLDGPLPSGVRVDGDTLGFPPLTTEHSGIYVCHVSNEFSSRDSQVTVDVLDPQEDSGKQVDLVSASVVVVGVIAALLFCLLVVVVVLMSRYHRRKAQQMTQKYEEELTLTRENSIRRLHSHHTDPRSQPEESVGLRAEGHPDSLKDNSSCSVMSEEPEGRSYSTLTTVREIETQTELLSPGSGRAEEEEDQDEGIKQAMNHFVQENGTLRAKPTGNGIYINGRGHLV
As to the kind of experiment: FACS. (Flow cytometry measures light scatter and fluorescence of single cells or particles in a stream.)

The target of assay [2] is T2, human Nectin-4 (cell surface nectin-4 on SUM190 tumor cells; nectin-4 in breast cancer tissues) (human, UniProt Q96NY8 32-510).
T2 construct: Endogenous nectin-4 of the human SUM190 breast cancer cell line (FACS) and of patient FFPE tumour tissue (IHC); also called PVRL4
T2 sequence: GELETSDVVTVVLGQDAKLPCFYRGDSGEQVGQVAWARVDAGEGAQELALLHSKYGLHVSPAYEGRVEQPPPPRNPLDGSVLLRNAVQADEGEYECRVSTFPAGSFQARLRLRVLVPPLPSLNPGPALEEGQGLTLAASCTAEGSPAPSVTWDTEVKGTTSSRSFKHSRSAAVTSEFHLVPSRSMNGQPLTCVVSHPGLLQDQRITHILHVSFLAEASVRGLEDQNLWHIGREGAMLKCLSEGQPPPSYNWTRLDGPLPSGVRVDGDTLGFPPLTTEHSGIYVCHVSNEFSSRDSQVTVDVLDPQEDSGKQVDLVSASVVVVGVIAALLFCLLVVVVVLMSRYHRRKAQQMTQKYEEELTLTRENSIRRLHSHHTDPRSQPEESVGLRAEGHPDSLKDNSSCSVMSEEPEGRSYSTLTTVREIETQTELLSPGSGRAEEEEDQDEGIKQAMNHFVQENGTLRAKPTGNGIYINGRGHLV
As to the kind of experiment: FACS on SUM190 cells, serial dilutions of mAb.

Assay [3] deals with T3, Nectin-4 (SUM190 cells) (UniProt Q96NY8 32-510).
T3 chain: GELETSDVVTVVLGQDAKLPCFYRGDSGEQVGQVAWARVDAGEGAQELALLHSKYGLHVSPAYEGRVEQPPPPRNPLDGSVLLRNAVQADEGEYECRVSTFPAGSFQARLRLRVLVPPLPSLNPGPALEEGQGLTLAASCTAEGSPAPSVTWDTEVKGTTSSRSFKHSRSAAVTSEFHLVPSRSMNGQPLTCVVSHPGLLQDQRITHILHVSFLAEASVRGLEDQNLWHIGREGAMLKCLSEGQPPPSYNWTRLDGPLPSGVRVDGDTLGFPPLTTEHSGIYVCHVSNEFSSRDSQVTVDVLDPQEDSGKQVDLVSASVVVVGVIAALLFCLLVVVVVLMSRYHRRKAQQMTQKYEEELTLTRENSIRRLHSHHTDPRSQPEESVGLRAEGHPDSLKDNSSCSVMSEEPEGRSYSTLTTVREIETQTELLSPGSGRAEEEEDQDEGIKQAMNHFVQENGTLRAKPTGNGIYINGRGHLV
As to the kind of experiment: FACS.

B1: murine monoclonal antibody 5A12.2 (hybridoma CNCM I-5407) (antibody, V domains shown)
VH: QIQLQQSGAELVKPGASVTLSCKTSGFTFNSMYISWLKQKPGQSLEWIAWIYAGTGGTRFNQKFTGKVQLTVDTSSSTAYMQFSSLTTDDSAIYYCAIRSGFVPMDYWGQGTSVTVSS
VL: SIVMTQTPKFLLVSAGDRVTITCKASQSVSNDVAWYQQKPGQSPKLLIYYASNRYTGVPDRFTGSGYGTDFTFTISTVQAEDLAVYFCQQDYSSPWTFGGGTKLEIK
notes: Whole murine monoclonal antibody from a hybridoma with a kappa light chain; also called mAb 5A12.2; 5A12.2 mAb
The term EC50 denotes the concentration giving half of the maximal effect. A lower EC50 goes with a more potent agent. For the molecule B1, in assay [1], the response was half-maximal at 0.018 µg/mL (EC50). In assay [2], the binding result is on record as “binds”.

B2: N41 (antibody, V domains shown)
VH: QVQLKQSGPGLVQPSQSLSITCTVSGFSLTNYGVHWVRQSPGKGLEWLGVIWSGGSTDYNAAFISRLSISKDTSKSQVFFKMNSLQADDTAIYYCARELIHAMDNWGQGTSVTVSS
VL: DIQMTQSPASLSVSVGETVTITCRASENIYSNLAWYQQKQGNSPQLLVFAATNLADGVPSRFSGSGSGTQYSLKINSLQSEDFGTYYCQHFWGTPTFGGGTKLEIK
With B2, the EC50 in assay [3] was 0.052 µg/mL.

B3: 14A5 (antibody, V domains shown)
VH: EVLLQQSGPELVKPGASVKIPCKASGYTFTDYTMDWVKQSHGKSLEWIGDINPNNDVTMYNEKFKGRATLTVDKSSSTAYMEVRSLTSEDTAVYYCVRGRGFAYWGQGTLVTVSA
VL: DIVLTQSPASLIVSLGQRATISCRASQSVSTSSNSYMHWYQQKPGQPPKLLIRFASNLESGVPARFSGSGSGTYFTLNIHPVEEEDSATYYCQHSWEIPYTFGGGTKLEIK
Regarding B3, in assay [3], the EC50 was 0.034 µg/mL.
